The text below walks through data of the RNAGym collection of RNA variant scans (doi:10.1073/pnas.2313332121).

First the molecules themselves.
B1: TPR t1 (parent)
chain: GACCAAUCUGCCCUCAGAGCUCGAGAACAUCUUCGGAUGCAGAGGAGGCAGGCUUCGGUGGCGCGAUAGCGCCAACGUCCUCAACCUCCAAUGCAUCCCACCACAUGAUGAUGCCUGAAGAGCCUUGGUUUUUUG

In the series the parent is B1. Briefly: polymerase ribozyme fitness, log enrichment relative to wild type (log ratio); higher = more active; in vitro selection for triplet polymerase activity. The method, boiled down:
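A single round of triplicate in vitro selection, including frozen incubation at −7 °C, was applied to PCR-built, transcribed mutant libraries of each subunit of a heterodimeric triplet polymerase ribozyme. Illumina sequencing of input and output libraries retained genotypes with ≥10 input reads and ≥1 read per output. Fitness is the base-2 logarithm of genotype enrichment divided by wild-type enrichment, from inverse-variance-weighted replicate averages.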
GAACAAUCUGCCCUCAGAGCUCGAGAACAUCUUCGGAUGCAGAGGAGGCAGGCUUCGGGGGCGCGAUAGCGCCAACGACCUCAACCUCAAAUGCAUCCCACCACAUGAUGAUGCCUGAAUAGCCUUGGUUUUUUG: the “polymerase ribozyme fitness (log ratio)” value is -3.26.

Regarding GACCAAUCUGCGCUCAGAGCUCGAGAACAUCUUCGGAUGCAGAGGAGGCAGGCUUCGGUGGCGCGAUAGCGCCAACGUCCUCAACCUCCAAUACAUCCCACCACAUGAUGAUGCCUGAAGAGCCUUGGUUUUUUG, the “polymerase ribozyme fitness (log ratio)” value is -0.233.

Regarding GACCAAUCUGCCCUCAGAGCUCGAGAACAUCUUCGGAUGCAGAGGAGGCAGGCUUCGGUGGCGCGAUAGCGCCAACGUACUCAACCUCCAAUGCAUCCCCCCACAUGAUGAUGCCUGAAGAGCCUUGGUUUUUUG, the “polymerase ribozyme fitness (log ratio)” value is -2.29.

In the case of GACCAAUCUGCCCUCAGAGCUCGGGAACAUCUUCGGAUGCAGAGGAGGCAGGCUUCGGUGGCGCGAUAGCGCCAACGUCCUCAACCUCCAAUGCAUCCCACCACAUGAUGAUGGCUGAAGAGCCUUGGUUUUUUG, the “polymerase ribozyme fitness (log ratio)” value is -3.83.

For GACCAAUCUGCCCUCAGAGCUCGAGAACAUCUUCGGAUGCAGAGGAGGCAGGCUUCUGUGGCGCGAUAGCGCCAACGUCCUCACCCUCCAAUGCAUCCCAGCACAUGAUGAUGCCUGAAGAACCUUGGUUUUUUG, the “polymerase ribozyme fitness (log ratio)” value was -3.55.

On to GACCAAUCUGCCCUCAGAGCUCGAGAACAUCUUCGGAUACAGAGGAGGCAGGCUUCGGUGGCGCGAUAGCGCCAACGUCCUCAACCUCCAAUGCAUCCCACCACAUGAUGAUGCAUGAAGAGCCUUGGUUUUUUG, for which the “polymerase ribozyme fitness (log ratio)” value was -0.711.

As for GACCAAUCUGCCCUCAGAGCUCGAGAACAUCUUCGGAUUCAGAGGAGGCAGGCUUCGGUGGCGCGAUAGCGCCAACGUCCUCAACCUCCGAUGCAUCUCACAACAUGAUGAUGCCUGAAGAGCCUUGGUUUUUUG, the “polymerase ribozyme fitness (log ratio)” value is -4.8.

As for GACCAAUCUGCUCUCAGAGCUCGAGAACAUCUUCGGAGGCAGAGGAGGCAGGCUUCGGUGGUGCGAUAGCGCCAAUGUACUCAACCUCCAAUGCAUCCCACCACAUGAUGAUGCCUGAAGAGCCUUGGUUUUUUG, the “polymerase ribozyme fitness (log ratio)” value was -1.79.

On to GACCAAUCUGCCCUCAGAGCUCGAGUACAUCUUCGGAUGCAGAGGAGGCAGGCUUCGGUGGCGCGAUAGAGCCAACGUCCUCAACCUCCAAUGCAUCCCACCACAUGAUGAUGCCUGAAGAGCCUUGGUUUUUUG, for which the “polymerase ribozyme fitness (log ratio)” value is -5.16.

In the case of GACCAAUCUGCCCUCAGAGCUCGAGAACAUCUUCGGAUGCAGAGGAGGCAGGGUUAGGUGGCGCGAUAGCGCCAACGUCCUCAACCUCCAAUGCAUCCCACCACAUGAUGAUGCCUGAAGAGCCUUGGUUUUUUG, the “polymerase ribozyme fitness (log ratio)” value is -0.204.

In the case of GACCAAUCUGCCCUCAGAGCUCGAGAACAUCUUCGGAUGCAGAGGAGGCAGGCUUCGGUGGCGCGAUAGCGCCAACGUCCUCAACCUCCAAUGCAUCCCACCACAUAAUGACGCCUGAAGAGCCUUGGUUUUUUG, the “polymerase ribozyme fitness (log ratio)” value is -3.85.

For GACCAAUCUGCCCUCAGAGCUCGAGAACAUCUUCGGAUGCAGAGGAGGCAGGCGUGGGUGGCGCGAUAGCGACAACGUCCUCAACCUCCAAUACAUCCCACCACAUGAUGAUGCCUGAAGAGCAAUGGUUUUUUG, the “polymerase ribozyme fitness (log ratio)” value is -2.75.

Regarding GACCAAUCUGCCCUCAGAGCUCGAGAACAUCUUCGGAUGCAGAGGAGGCAGGUUUCGGUGGCGCGAUAACGCCAACGUCCUCAACCUCCAAUGCAUCCCACCCCAUGAUGAUGCCUGAAUAGCCUUGCUUGUUUG, the “polymerase ribozyme fitness (log ratio)” value is -6.03.

In the case of GACCAAUCGGCCCUCAGAGCUCGAGAACAUCUUCGGAUGCAGAGGAGGCAGGCUUCGGUUGUGCGAUAGCGGCAACGUCCUCAACCUCCAAUGCAUCCCACCACAUGAUGAUGCCUGAAGAGCCUUGGUUUUUUG, the “polymerase ribozyme fitness (log ratio)” value was -2.01.

Regarding GACCAAUCUGCCCUCAGGGCUCGAGAACAUCUUCAGAUGCAGAGGAGGCAGGCUUCGGUGGCGCGAUAACGCCAACGUCCUCAACCUCCAAUGCAUCCCACCACAUGAUGAUGCCUAAAGAGCCUUGGUUUUUUG, the “polymerase ribozyme fitness (log ratio)” value was -5.21.

Regarding GACCAAUCUGGCCUCAGAGCUCGAGAACAUCUUCGGAUGCAGAAGAGGCAGGCUUCGGUAGCGCGAUAGCGCCAACGUCCUCAACCUCCAAUGCAUCCCACCACAUGAUGAUGCCUGAAGUGCCUUGGUUUUUUG, the “polymerase ribozyme fitness (log ratio)” value amounted to 1.14.

As to GACCAAUCUGCCCUCAGAGCUCGAGAACAUCUUCGGAUGCAGAGGAGGCAGGCUUCGGUGGCGCGAUAGCGCCAACGUCCUCAACCUCCAAUGCAUCCCACCACAUGAUGAUGCAUGAAGAGCCUUUGUUUUUUG, the “polymerase ribozyme fitness (log ratio)” value was -2.8.

For the variant GACCAAUCUGCCCUCAGAGCUCGAGAACAUCUUCGGAUGCCGAGGAGGCAGGCUUCGGUGGCGCGAUAGCGCCAACGUCAUCAACCUCCAAUGCAUCCCACCACAUAAUGAUGCCUUAAGAGCCUUGGCUUUUUG, the “polymerase ribozyme fitness (log ratio)” value was -7.66.

Take GACCAAUCUGCCCUCAGAGCUCGAGAACAUCUUCGGAUGCAGAAGAGGCAGGCUUCGGUGGCGCGAUGGCGCCAACGUCCUCAACCUCCAAUGCAUCCCACCACAUGAUGAAGCCUGAAGAGCCUUGGUUUUUUG: the “polymerase ribozyme fitness (log ratio)” value was -3.21.

With GACCAAUCUGCCCACAGAGCUCGAGAACAUCUUCGGAUGCAGAGGAGGCAGGCUUCGGUGACGCGAUAGCGCCAACGUCCUCAACCUCCAAUGCAUCCCACCACAUGAUGAUGCCUGAAGAGCCUUGGUUUUUUG, the “polymerase ribozyme fitness (log ratio)” value is -1.88.

As for GACCAAUCUGACCUCAGAGCUCGAGAACAUCUUCGGAUGCAGAGGAGGAAGGCUUCGGUGGCGCGAUAACGCCAACGUCCUCAACCUCCAAUGCAUCCCACCACAUGAUGAUACCUGAAGAGCCUUGCUUUUUUG, the “polymerase ribozyme fitness (log ratio)” value is -6.11.
